Reference: US20250177547A1, “PSMA-STEAP1 DUAL VARIABLE DOMAIN IMMUNOGLOBLIN (DVD-Ig) MOLECULES AND DRUG CONJUGATES” (AbbVie Inc., priority 2023, published 2025)
Marks after values point to notes of the source that are not given here.

How the values were obtained:
LNCaP.FGC xenograft = LNCaP.FGC xenograft study of MMAE conjugates; type: in vivo, mouse
Protocol: (§1) Male NSG mice were obtained from Jackson Laboratories (Bar Harbor, ME) for both LNCaP.FGC and 22Rv1 xenograft studies. Mice were housed by treatment group at seven to eight mice per cage. Food and water were available ad libitum. Mice were acclimated to the animal facilities for a period of at least one week prior to commencement of experiments. Animals were tested in the light phase of a 12-hour light:12-hour dark schedule (lights on at 06:00 hours).
(§2) To generate xenografts from LNCaP.FGC (ATCC) and from 22Rv1 (ATCC) cell lines, 5×10^6 viable LNCaP.FGC and 22Rv1 cells were inoculated subcutaneously into the right flank of male NSG mice, respectively. The injection volume was 0.1 mL and composed of a 1:1 mixture with Matrigel (BD, Franklin Lakes, NJ). Measurements of the length (L) and width (W) of the tumor were taken via electronic caliper and the tumor volume was calculated according to the following equation: V=L×W^2/2.
Mice were assigned to treatment groups so that the mean tumor volumes within groups were approximately 175-250 mm^3. An anti-PSMA-MMAE ADC at Dose-1 1×, an anti-STEAP1-MMAE ADC at Dose-1 1×, and various of the PSMA/STEAP-1 DVD-Igs conjugated with MMAE described above at Dose-1 1.33×(Clone 13 was administered at Dose-1 0.87×due to limited compound availability) were administered within 24-48 hours of assignment to treatment groups based on tumor volumes. Tumor volumes were estimated two times weekly after dosing, with study groups body weights taken at the time of tumor measurements. Mice were euthanized (1) when tumor volume reached 2,000 mm^3, (2) when general efficacy parameters were confidently determined, or (3) when necessitated by other animal health issues.
Parameters of Efficacy were determined as follows:
TGI (tumor growth inhibition)=1−(mean tumor volume of treatment group/mean tumor volume of treatment control group)×100 based on measurements on day of vehicle endpoint. P values are derived from Student's T test comparison of treatment group vs. vehicle control group.
TGD (tumor growth delay)=(T−C)/C×100, where T is the median time to endpoint of treatment group and C is the median time to endpoint of treatment control group. P values are derived from Kaplan Meier log-rank comparison of treatment group vs. vehicle control group.

22Rv1 xenograft = 22Rv1 xenograft study of MMAE conjugates; type: in vivo, mouse; settings: FIG. 4A
Protocol: as §1, §2
Mice were assigned to treatment groups so that the mean tumor volumes within groups were approximately 175-250 mm^3. […] Mice were euthanized (1) when tumor volume reached 2,000 mm^3, (2) when general efficacy parameters were confidently determined, or (3) when necessitated by other animal health issues.

HEK293-PSMA cells = assay: In vitro cytotoxicity of MMAE conjugates (CellTiter-Glo), HEK293-PSMA; settings: FIG. 3B/3E

B1: STEAP1-PSMA-(vcMMAE) Clone 15: PSMA-STEAP1 DVD-Ig clone 15 conjugated with monomethyl auristatin E (MMAE) (conjugate)
heavy: EVQLVESGGGVVQPGRSLRLSCVASGFPFNNYWMTWIRQAPGKGLEWIASITITGGTTYYPGSVKGRFTISRDNSKSTLYLQMNSLRAEDTAVYYCTRERYSTEYYPYYWYFDFWGQGTMVTVSSGGGGSGGGGSEVQLVQSGAEVKKPGSSVKVSCKASGYTFTDYYMNWVKQAPGKGLEWIGLINPSNGGTNYNQKFRDKATLTVDKSTSTAYMELSSLRSEDTAVYYCARRAQATSGDYWGQGTTVTVSS
light: DIQMTQSPSSLSASVGDRVTITCRTSQDIGNYLRWFQQKPGKSPKLMIYDAINLAAGVPSRFSGSGSGTDYTLTISSLQPEDVATYYCLQHNEYPYTFGQGTKLEIKGGSGGGGSGDIQMTQSPSSLSASVGDRVTITCHASQNINVWLSWYQQKPGKAPKLLIYKASNLHTGVPSRFSGSGSGTDFTFTISSLQPEDIATYYCQQGQTYPLTFGGGTKVEIK
modifications: left off: a dimerising Fc or GST; large carriers
- activity in LNCaP.FGC xenograft model relative to monospecific ADCs (LNCaP.FGC xenograft; FIG. 4B): comparable or superior activity relative to monospecific ADCs
- PR (%) partial response (LNCaP.FGC xenograft; LNCaP.FGC xenograft, IP, QD x 1, >25 mm^3 but less than one-half of volume at onset): 38* %
- TR (%) total responders (LNCaP.FGC xenograft; LNCaP.FGC xenograft, IP, QD x 1, sum of CR and PR): 75*** %
- CR (%) complete response (LNCaP.FGC xenograft; LNCaP.FGC xenograft, IP, QD x 1, tumor burden ≤25 mm^3 for at least three consecutive measurements): 38%
- TGI (%) (LNCaP.FGC xenograft; LNCaP.FGC xenograft, male NSG mice, IP, QD x 1, day of comparison d 63 post inoculation): 88*** %
- TGD (%) (LNCaP.FGC xenograft; LNCaP.FGC xenograft, male NSG mice, IP, QD x 1, tumor volume endpoint 1000 mm^3): 229*** %
- activity in 22Rv1 xenograft model relative to monospecific ADCs (22Rv1 xenograft): comparable or superior activity relative to monospecific ADCs
- cytotoxic activity in HEK293-PSMA cells (HEK293-PSMA cells): weaker than PSMA-MMAE
